# Experimental data reported in publication PMC8344073.
# T1: RORα (UniProt P35398 1-523)
# T1 sequence: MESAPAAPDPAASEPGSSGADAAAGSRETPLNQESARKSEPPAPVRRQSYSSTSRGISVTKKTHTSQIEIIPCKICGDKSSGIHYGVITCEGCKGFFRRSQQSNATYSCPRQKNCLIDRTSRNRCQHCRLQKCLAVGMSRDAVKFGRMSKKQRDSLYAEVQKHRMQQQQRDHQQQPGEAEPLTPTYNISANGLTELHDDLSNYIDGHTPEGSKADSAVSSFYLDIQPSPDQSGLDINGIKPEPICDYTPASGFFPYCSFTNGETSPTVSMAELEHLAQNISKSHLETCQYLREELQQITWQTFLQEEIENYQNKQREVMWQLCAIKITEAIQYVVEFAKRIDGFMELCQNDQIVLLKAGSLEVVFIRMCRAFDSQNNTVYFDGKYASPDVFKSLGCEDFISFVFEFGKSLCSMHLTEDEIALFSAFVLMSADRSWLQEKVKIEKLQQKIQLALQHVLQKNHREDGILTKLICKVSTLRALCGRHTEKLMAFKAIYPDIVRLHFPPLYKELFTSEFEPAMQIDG
# B1: SULT1E1 ERE (dsDNA)
# DNA 1: GAGGGTCAAGATAAACATT
# DNA 2: AATGTTTATCTTGACCCTC
# B2: SULT1E1 RORE (dsDNA)
# DNA 1: AGAGAATTGAGGTCACAG
# DNA 2: CTGTGACCTCAATTCTCT
# Legend:
# ERα = ERα (UniProt P03372 1-595); assay: EMSA
# Chain of ERα (P03372 whole entry): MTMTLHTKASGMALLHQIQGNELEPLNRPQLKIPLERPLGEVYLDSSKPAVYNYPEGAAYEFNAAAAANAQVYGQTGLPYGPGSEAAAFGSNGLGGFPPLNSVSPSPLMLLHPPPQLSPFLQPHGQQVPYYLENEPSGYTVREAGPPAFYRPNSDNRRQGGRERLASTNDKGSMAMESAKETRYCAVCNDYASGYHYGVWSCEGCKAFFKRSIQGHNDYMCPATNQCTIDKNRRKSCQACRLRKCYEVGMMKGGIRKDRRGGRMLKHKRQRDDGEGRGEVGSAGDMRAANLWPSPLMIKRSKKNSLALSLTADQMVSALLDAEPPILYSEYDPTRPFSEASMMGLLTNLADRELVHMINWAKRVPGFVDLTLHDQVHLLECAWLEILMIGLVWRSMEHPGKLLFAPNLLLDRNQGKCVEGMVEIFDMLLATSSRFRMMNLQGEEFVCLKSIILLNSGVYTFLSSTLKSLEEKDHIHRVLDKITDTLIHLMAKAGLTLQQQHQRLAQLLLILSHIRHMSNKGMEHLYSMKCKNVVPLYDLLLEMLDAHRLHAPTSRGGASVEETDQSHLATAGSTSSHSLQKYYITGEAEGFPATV
# RORα = target: T1, RORα; assay: EMSA
Binder,binding result (ERα),binding result (RORα)
B1,binds,–
B2,–,binds
